The values that follow come from patent US20220119517A1.

The target in assay [1] is human Claudin18.2 (CLDN18.2), full length, on cells (human). The assay is described as follows: cell-based or functional assay.
Assay [2] concerns the target human Claudin18.1 (CLDN18.1), full length, on cells (human) (UniProt P56856). The experiment in a line: FACS on CHO-K1-CLDN18.1 cells.
Assay [3] concerns the target human Claudin18.2 (CLDN18.2), full length, on cells (human). The assay is described as follows: FACS on NUGC4 cells.

As to “human IgG1, kappa isotype control antibody”, in assay [1], the ADCC cytotoxicity by LDH method, PBMC effectors, Max (%) stood at 52%; the in-vitro ADCC activity, Jurkat-CD16A/NF luciferase reporter, EC50 stood at 13.5 nM; the in-vitro ADCC activity, Jurkat-CD16A/NF luciferase reporter, Top turned out to be 6190. The MFI (CLDN18.1) in assay [2] was 219 MFI. Moreover, the MFI (CLDN18.2) in assay [3] came out at 93 MFI.
